For assay [1], the target named is T1, N-terminal GST-fused wild-type PREP1 (UniProt P55347 1-436).
T1 construct: PREP1 (PKNOX1), residues 1-436; Detected through GST in the ELISA; also called GST-fused PREP1; source: E. coli, purified; not shown: GST, N-terminal, kept
T1 sequence (looked up): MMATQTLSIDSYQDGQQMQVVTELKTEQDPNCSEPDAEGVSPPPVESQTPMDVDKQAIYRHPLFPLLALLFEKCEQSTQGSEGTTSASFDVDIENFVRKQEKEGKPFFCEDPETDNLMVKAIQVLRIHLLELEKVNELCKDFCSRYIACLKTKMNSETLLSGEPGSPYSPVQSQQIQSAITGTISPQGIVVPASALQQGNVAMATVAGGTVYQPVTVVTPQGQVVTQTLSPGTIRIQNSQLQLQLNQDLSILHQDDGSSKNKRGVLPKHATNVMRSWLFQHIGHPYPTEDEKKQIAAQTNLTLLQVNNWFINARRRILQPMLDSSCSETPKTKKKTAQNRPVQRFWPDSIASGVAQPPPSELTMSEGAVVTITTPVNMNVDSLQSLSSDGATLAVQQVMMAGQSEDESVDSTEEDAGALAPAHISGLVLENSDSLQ
Kind of assay: ELISA; PBX1 wild-type coated at 0.1 µM in 100 mM Tris–HCl pH 7.5; GST-fused proteins at 0.23 nM to 0.5 µM, 1 h at 37 °C; anti-GST detection; GST signal subtracted; one-site binding model. The note with it: both partners purified. (An ELISA detects its analyte on a solid surface through an enzyme-linked reagent.)

The target in another assay is PBX1Δ197-204 (human) (UniProt P40424). Kind of assay: time-resolved fluorescence immunoassay (TR-FIA); plate coated with monoclonal anti-PBX1; PBX1 pre-incubated with PREP1 or MEIS1 for 1 h on ice, 10 µg/mL in 1% BSA PBS, 1 h at room temperature on the plate; detected with anti-PREP1 or biotinylated anti-MEIS1/2 and Eu^3+ conjugates; normalised to the wild-type protein taken as 1.

The target in assay [2] is single mutations of most hydrophobic residues (V80, L81 and I84) of PBX1. The description is as above.
For assay [3], the target named is double or triple mutants (L77A/V80A, L77A/I84A, V80A/L81A, L77A/V80A/L81A) of PBX1. The assay is described as above.
Assay [4] deals with T2, PBX1 with substitution of both 204 and 211 residues (I204A/I211A) (human, UniProt P40424 1-430, I204A | I211A).
T2 construct: PBX1, residues 1-430; source: E. coli, purified
T2 sequence (looked up): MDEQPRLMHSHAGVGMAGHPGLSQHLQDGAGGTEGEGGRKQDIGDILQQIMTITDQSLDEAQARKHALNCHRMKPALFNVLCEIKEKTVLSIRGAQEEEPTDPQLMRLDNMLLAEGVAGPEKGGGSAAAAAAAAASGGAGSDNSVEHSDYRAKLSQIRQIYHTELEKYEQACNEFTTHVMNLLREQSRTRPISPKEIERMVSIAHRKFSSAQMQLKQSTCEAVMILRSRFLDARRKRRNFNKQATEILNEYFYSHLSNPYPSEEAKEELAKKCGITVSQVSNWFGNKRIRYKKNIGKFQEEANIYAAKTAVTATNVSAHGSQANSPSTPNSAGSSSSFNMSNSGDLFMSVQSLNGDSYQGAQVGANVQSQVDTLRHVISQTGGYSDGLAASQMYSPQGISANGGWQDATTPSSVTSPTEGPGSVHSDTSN
The assay is described as above. The following applies: both partners purified.

B1: PBX1_(1-430), wild-type recombinant (natural protein, human, UniProt P40424 1-430, looked up)
chain: MDEQPRLMHSHAGVGMAGHPGLSQHLQDGAGGTEGEGGRKQDIGDILQQIMTITDQSLDEAQARKHALNCHRMKPALFNVLCEIKEKTVLSIRGAQEEEPTDPQLMRLDNMLLAEGVAGPEKGGGSAAAAAAAAASGGAGSDNSVEHSDYRAKLSQIRQIYHTELEKYEQACNEFTTHVMNLLREQSRTRPISPKEIERMVSIIHRKFSSIQMQLKQSTCEAVMILRSRFLDARRKRRNFNKQATEILNEYFYSHLSNPYPSEEAKEELAKKCGITVSQVSNWFGNKRIRYKKNIGKFQEEANIYAAKTAVTATNVSAHGSQANSPSTPNSAGSSSSFNMSNSGDLFMSVQSLNGDSYQGAQVGANVQSQVDTLRHVISQTGGYSDGLAASQMYSPQGISANGGWQDATTPSSVTSPTEGPGSVHSDTSN
notes: also called wild-type PBX1; purified recombinant human PBX1; source: E. coli, purified
On to B1, for which, in assay [1], the Kd came out at 18 ± 4 nM.

B2: PREP1_(1-436), wild-type recombinant (TR-FIA) (natural protein, UniProt P55347 1-436, looked up)
chain: MMATQTLSIDSYQDGQQMQVVTELKTEQDPNCSEPDAEGVSPPPVESQTPMDVDKQAIYRHPLFPLLALLFEKCEQSTQGSEGTTSASFDVDIENFVRKQEKEGKPFFCEDPETDNLMVKAIQVLRIHLLELEKVNELCKDFCSRYIACLKTKMNSETLLSGEPGSPYSPVQSQQIQSAITGTISPQGIVVPASALQQGNVAMATVAGGTVYQPVTVVTPQGQVVTQTLSPGTIRIQNSQLQLQLNQDLSILHQDDGSSKNKRGVLPKHATNVMRSWLFQHIGHPYPTEDEKKQIAAQTNLTLLQVNNWFINARRRILQPMLDSSCSETPKTKKKTAQNRPVQRFWPDSIASGVAQPPPSELTMSEGAVVTITTPVNMNVDSLQSLSSDGATLAVQQVMMAGQSEDESVDSTEEDAGALAPAHISGLVLENSDSLQ
notes: also called wild-type PREP1; PKNOX1; source: E. coli, purified
As to B2, the binding relative to wild type is 65% with PBX1Δ197-204 (human), 40 to 60% in assay [2], 30 to 40% in assay [3] and roughly 50% in assay [4].

In general, Kd refers to the free concentration of one partner at which half of the binding sites on the other are occupied at equilibrium, for simple one-to-one binding. The low end stands for tighter binding, the high end for weaker binding.

(Values after article PMC7545097, “Mapping the native interaction surfaces of PREP1 with PBX1 by cross-linking mass-spectrometry and mutagenesis” (Scientific Reports, 2020).)
